Molecular target: T1, intestinal guanylate cyclase (Homo sapiens, UniProt P25092)
T1 construct: host or cells: T84 human colon carcinoma cells
Assay: T84 cell bioassay: intracellular cyclic GMP levels
Assay type: cell-based
Details: compared with STa; T84 cells, FIG. 3a
Procedure: a) Activity in the T84 cell bioassay. As determined by analysis of the effects of the peptides on intracellular cyclic GMP levels.
Cell Culture: A cultured human colon carcinoma cell line (T84) was obtained from the American Type Culture Collection (Rockville, Md.) at passage 52. Cells were grown to confluency in 24-well culture plates with a 1:1 mixture of Ham's F12 medium and Dulbecco's modified Eagle's medium (DMEM), supplemented with 10% fetal calf serum, 100 IU/ml penicillin, and 100 μg/ml streptomycin. Cells were used at passages 54-60.
Cyclic GMP determination: Monolayers of T84 cells in 24-well plates were washed twice with 1 ml/well DMEM, then incubated at 37 C. for 10 min with 0.5 ml DMEM containing 1 mM isobutylmethylxanthine (IBMX), a cyclic nucleotide phosphodiesterase inhibitor. Agents and fractions were then added for the indicated time as described in the results section. The media was then aspirated and the reaction terminated by the addition of ice cold 0.5 ml of 0.1N HCl. Aliquots were then evaporated to dryness under nitrogen and then resuspended in 5 mM sodium acetate buffer, pH 6.4. The samples were subsequently measured for cyclic GMP by RIA as described by Steiner et al. (16).

T1 sequence (P25092 24-1073): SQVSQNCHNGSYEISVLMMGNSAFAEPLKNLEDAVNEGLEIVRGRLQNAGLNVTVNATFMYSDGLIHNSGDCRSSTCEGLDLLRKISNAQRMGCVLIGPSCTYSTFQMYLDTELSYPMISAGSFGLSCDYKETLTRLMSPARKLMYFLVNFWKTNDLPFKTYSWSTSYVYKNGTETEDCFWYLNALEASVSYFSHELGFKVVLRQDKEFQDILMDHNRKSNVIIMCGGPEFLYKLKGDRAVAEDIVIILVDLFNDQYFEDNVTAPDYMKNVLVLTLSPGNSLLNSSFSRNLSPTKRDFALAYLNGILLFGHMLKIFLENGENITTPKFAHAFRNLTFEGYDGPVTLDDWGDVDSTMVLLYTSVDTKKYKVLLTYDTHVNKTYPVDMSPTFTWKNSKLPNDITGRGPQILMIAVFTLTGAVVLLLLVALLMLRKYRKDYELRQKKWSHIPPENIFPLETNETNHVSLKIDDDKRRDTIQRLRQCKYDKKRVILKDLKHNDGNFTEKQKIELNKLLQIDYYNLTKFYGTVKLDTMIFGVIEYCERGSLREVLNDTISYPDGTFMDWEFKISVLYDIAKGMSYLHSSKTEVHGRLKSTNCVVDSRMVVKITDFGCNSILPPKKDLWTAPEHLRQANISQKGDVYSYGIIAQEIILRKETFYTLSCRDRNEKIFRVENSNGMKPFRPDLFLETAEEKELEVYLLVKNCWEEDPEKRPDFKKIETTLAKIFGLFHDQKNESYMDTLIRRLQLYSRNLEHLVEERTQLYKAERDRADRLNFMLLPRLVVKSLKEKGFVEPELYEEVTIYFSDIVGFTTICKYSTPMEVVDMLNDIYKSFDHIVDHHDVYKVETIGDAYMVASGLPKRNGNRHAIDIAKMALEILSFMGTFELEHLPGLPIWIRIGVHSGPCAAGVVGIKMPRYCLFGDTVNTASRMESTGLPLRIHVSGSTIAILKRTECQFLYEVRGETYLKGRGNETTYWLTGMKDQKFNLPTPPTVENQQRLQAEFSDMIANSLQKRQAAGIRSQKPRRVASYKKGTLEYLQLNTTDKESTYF

B1: rat guanylin: 15 amino acid rat guanylin peptide; shares 14 of 15 amino acids with human guanylin (peptide)
peptide: MNAWLLSVLCLLGALAVLVEGVTVQDGDLSFPLESVKQLKHLREVQEPTLMSHKKFALRLPKPVAPELCSQSAFPEALRPLCEKPNAEEILQRLEAIAQDPNTCEICAYAACTGC
- relative potency to activate intestinal guanylate cyclase (T84 cell cyclic GMP): about one order of magnitude less potent than STa

— patent publication US5969097A, “Human guanylin” (G. D. Searle & Co., priority 1992, dated 1999)
